Experimental data published in PMC5332438.

Assays:
Assay in all cases: co-IP
[1] = biological target: human mitochondrial adenine nucleotide translocator, C-terminal c-Myc-DDK tag (human) (UniProt P12235)
[2] = biological target: human translocase of outer mitochondrial membrane 22 homolog, C-terminal c-Myc and DDK tags (human) (UniProt Q9NS69)
[3] = biological target: human BKCa alpha-subunit starting from Met3, untagged (human)
[4] = biological target: Full length human BKCa alpha-subunit starting from Met1, 3xHA-tagged, with DEC splice insert (human)
Sequence of Full length human BKCa alpha-subunit starting from Met1, 3xHA-tagged, with DEC splice insert (human) (Q12791 whole entry, canonical isoform): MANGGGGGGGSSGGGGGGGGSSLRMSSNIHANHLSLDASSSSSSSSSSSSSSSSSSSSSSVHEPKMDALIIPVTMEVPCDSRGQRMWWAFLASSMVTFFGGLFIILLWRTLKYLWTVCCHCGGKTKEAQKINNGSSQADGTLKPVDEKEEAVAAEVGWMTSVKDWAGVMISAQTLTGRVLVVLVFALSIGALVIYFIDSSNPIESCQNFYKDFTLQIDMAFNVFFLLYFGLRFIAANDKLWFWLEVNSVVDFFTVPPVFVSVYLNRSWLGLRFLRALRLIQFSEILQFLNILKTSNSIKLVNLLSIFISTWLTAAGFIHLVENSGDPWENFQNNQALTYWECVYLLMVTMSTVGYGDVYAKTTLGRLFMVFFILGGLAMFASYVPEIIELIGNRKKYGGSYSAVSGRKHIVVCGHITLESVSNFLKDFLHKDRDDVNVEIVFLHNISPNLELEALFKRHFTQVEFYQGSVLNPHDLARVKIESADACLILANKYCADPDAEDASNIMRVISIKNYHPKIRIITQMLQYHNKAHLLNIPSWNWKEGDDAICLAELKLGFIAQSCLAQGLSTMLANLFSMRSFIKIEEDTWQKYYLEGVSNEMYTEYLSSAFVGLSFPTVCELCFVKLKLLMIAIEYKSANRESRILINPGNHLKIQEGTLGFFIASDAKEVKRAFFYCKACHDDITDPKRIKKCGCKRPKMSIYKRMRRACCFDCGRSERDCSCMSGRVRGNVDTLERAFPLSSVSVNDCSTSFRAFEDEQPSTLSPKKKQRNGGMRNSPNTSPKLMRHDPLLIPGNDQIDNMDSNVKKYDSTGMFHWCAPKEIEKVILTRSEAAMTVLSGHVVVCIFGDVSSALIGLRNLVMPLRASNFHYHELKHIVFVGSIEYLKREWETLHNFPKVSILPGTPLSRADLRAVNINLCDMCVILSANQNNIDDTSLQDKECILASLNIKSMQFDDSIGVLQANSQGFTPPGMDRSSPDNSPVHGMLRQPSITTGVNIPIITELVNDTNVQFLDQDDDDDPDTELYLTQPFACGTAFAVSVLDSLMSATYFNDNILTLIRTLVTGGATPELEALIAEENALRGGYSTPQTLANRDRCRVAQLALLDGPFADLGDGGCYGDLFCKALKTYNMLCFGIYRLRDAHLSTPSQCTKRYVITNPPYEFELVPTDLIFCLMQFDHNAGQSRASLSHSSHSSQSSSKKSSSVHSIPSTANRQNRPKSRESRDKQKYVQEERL

[5] = biological target: Full length human BKCa alpha-subunit starting from Met1, 3xHA-tagged, without DEC (human)
Sequence of Full length human BKCa alpha-subunit starting from Met1, 3xHA-tagged, without DEC (human) (Q12791 whole entry): as the sequence (Q12791 whole entry, canonical isoform) above

Sequence of human BKCa alpha-subunit starting from Met3, untagged (human) (Q12791 whole entry, canonical isoform): as above

Work on “c-Myc-BKCa 679-1113 (domain or fragment)” yielded a Co-IP efficiency (compared to wild-type BKCa) [1] of 0.33 and a Co-IP efficiency (wild-type BKCa = 1) [2] of 0.42.

c-Myc-BKCa 1-711 (domain or fragment) showed a Co-IP efficiency (compared to wild-type BKCa) [1] of 0.91.

Molecule “c-Myc-BKCa 322-1113 (domain or fragment)” has a Co-IP efficiency (compared to wild-type BKCa) [1] of 0.17 and a Co-IP efficiency (wild-type BKCa = 1) [2] of 0.33.

B1: human mitochondrial adenine nucleotide translocator, C-terminal c-Myc-DDK tag (natural protein)
chain: MGDHAWSFLKDFLAGGVAAAVSKTAVAPIERVKLLLQVQHASKQISAEKQYKGIIDCVVRIPKEQGFLSFWRGNLANVIRYFPTQALNFAFKDKYKQLFLGGVDRHKQFWRYFAGNLASGGAAGATSLCFVYPLDFARTRLAADVGKGAAQREFHGLGDCIIKIFKSDGLRGLYQGFNVSVQGIIIYRAAYFGVYDTAKGMLPDPKNVHIFVSWMIAQSVTAVAGLVSYPFDTVRRRMMMQSGRKGADIMYTGTVDCWRKIAKDEGAKAFFKGAWSNVLRGMGGAFVLVLYDEIKKYV
Work on B1 yielded a Co-IP efficiency (BKCa-DEC = 1) [3] of 0.69.

B2: human translocase of outer mitochondrial membrane 22 homolog, C-terminal c-Myc and DDK tags (natural protein)
chain: MAAAVAAAGAGEPQSPDELLPKGDAEKPEEELEEDDDEELDETLSERLWGLTEMFPERVRSAAGATFDLSLFVAQKMYRFSRAALWIGTTSFMILVLPVVFETEKLQMEQQQQLQQRQILLGPNTGLSGGMPGALPSLPGKI
Molecule B2 has a Co-IP efficiency [4] of 0.91 and a Co-IP efficiency [5] of 0.89.
